Measured values: US20140093514A1 (UNIVERSITY OF ZURICH, published 2014)
Like-named read-outs stand apart in the source and are kept apart here.

T1: MAGEA3 peptide No 5
T1 construct: member of the group m18; also called 20mer peptide, amino acids 41-60 of MAGEA3
T1 peptide: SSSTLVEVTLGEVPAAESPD

T2: recombinant MAGEA1 (UniProt P43355 1-309, limits assumed)
T2 construct: also called CT1.1
T2 sequence (looked up): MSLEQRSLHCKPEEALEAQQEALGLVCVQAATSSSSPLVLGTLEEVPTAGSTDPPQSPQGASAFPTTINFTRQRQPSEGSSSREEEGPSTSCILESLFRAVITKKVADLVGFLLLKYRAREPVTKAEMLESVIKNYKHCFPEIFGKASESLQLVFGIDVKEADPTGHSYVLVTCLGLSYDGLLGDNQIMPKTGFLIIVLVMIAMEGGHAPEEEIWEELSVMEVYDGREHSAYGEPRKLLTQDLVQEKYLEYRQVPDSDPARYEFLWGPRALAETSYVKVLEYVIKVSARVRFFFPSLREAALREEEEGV

T3: recombinant MAGEA4 (UniProt P43358 1-317, limits assumed)
T3 construct: also called CT1.4
T3 sequence (looked up): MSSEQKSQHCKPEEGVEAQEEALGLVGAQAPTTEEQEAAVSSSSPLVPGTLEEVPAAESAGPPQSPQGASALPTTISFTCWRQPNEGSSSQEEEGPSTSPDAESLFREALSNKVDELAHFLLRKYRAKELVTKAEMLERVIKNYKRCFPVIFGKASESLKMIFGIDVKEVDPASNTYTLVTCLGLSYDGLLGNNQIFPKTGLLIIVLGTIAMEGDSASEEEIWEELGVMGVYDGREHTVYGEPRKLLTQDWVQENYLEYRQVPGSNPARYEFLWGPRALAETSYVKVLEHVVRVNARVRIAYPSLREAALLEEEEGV

T4: MAGEA3 peptide No 22
T4 construct: member of the group m18; also called 20mer peptide, amino acids 211-230 of MAGEA3
T4 peptide: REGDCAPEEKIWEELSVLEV

T5: MAGEA3 peptide No 10
T5 construct: member of the group m18; also called 20mer peptide, amino acids 91-110 of MAGEA3
T5 peptide: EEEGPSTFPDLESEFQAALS

B1: 9A5 (antibody, V domains shown)
VH: EVQLVASGGVMVKPGGSLRLSCAASGFSFKNAWMTWVRQAPGMGLEWVGRITSKTDGETTDYAAPVKGRFTISRDDSKNILYLQMNSLKTEDTAVYYCATRTTVCYVCWGQGTLVTVSS
VL: DIVLTQSPDSLAVSQGERATINCKSSQSLLYSSNNKNYLAWFQQKPGQPPKLLIYWASTRESGVPDRFSGSGSGTDFTLTISSLQAEDVAVYYCQQYYTIGWTFGPGTKVEIK
B2: 54B4 (antibody, V domains shown)
VH: EVQLVESGGGLVPPGGSLRLSCAASGFTFTTYGLTWVRQAPGKGLEWISYITSSGTIIHYADSVKGRFTISRDNAKNSLYLQMNSLRAEDTAVYYCARGRRGTVVRGVMLDQWGQGTLVTVSS
VL: DIQMTQSPSTLSASIGDRVTITCRASQSISRWLAWYQQKPGQAPKLLIYEASSLESGVPSRFSGSGSGTEFTLTISSLQPDDFAIYYCQQYSSYSLTFGGGTKVEIK
B3: 43B10 (antibody, V domains shown)
VH: EVQLVESGGGLVPPGGSLRLSCAASGFTFTTYGLNWVRLAPGKGLEWISYITSSGTIIHYADSVKGRFTISRDNAKNSLYLQMNSLRAEDTAVYYCARGRRGTVVRGVMLDQWGQGTLVTVSS
VL: DIQMTQSPSTLSASIGDRVTIACRASQSISRWLAWYQQKPGQAPKLLIYEASSLESGVPSRFSGSGSGTEFTLTISSLQPDDFATYYCQQYSSYSLAFGGGTKVEIK
B4: 4D6 (antibody, V domains shown)
VH: QVQLVESGGGVVQPGRSLRLSCAASGFSFSDYAMHWVRQAPGKGLEWVAVISYDGTKKYYADSVEGRLTISRDNSQNTLSLQMSGLRVEDKGVYYCARDGCDSARCSYGMDVWGQGTTVTVSS
VL: EIVMTQSPSSLSASVGDRVTITCRASQDIRNDLGWYQQKPGKAPKLLIYGASTLQSGVPSRFSGSGSGTDFTLTISSLQPEDFATYYCLQDYSYRWTFGQGTKVEIK
B5: 31H10 (antibody, V domains shown)
VH: QVQLVESGGGVVQPGGSLRLSCAASDFTFSDHGMHWVRQAPGKGLQWVSFISHHGTNKYYIDSVKGRFIISRDNSKNTLYLQMNSLRTEDTAVYYCATVIGYFFGYGFDVWGQGTTVIVSS
VL: EIVMTQSPATLSVSPGEEINLACRASHSISGNLAWYQQKPGQGPRLLIYSASTRATGISARFSGSGSGTEFTLTISSLESEDFAVYFCQQYNNWPLTFGGGTKVEIK
B6: 20C10 (antibody, V domains shown)
VH: QLQLQESGPGLVKPSETLSLTCTVSGDSISASTDSWGWIRQSPGKGLEWIGVTSYSGRPYYNPSLKRRVTISVDTSKNHFSLKLTSVTAADRALYYCARRPSLIWAFDIWGQGTMVTVSS
VL: QSALTQPASVSGSPEQSITISCTGTSSAVGNYNLVSWYQHHPGKAPLLIIYDVNERPSGVSHRFSGSRSGNTASLTISGLLAEDEADYFCCSYGGTSSLHYVFGTGTRVTVL
B7: 94G11 (antibody, V domains shown)
VH: QVLLQESGPGLVKPSQILSLTCTVSGGSNRSVSYYWSWIRQPAGQGLEWIGRIYPSGSTHYNPSLKSRVTISVDTSKNQFSLKLSSLTAADTAMYFCAWGGYDSLGGRRLRHFDYWGQGALVTVSS
VL: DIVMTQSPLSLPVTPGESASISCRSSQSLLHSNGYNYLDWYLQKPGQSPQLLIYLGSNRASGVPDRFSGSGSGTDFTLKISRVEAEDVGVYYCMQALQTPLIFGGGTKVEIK
B8: 26C9 (antibody, V domains shown)
VH: QVQLVQSGAAVKKPGSSVKVSCTASGGTFGTSGITWVRQAPGQGLEWVGRVTPILGITRYAQRFQGRVTITADTSTSTAYMELSRLRSDDTALYYCARAPEMTINSDWGQGTLVTVSS
VL: QSALTQPASVSGSPGQSITISCTGTRSDVGGHNYVSWYQQDPDKAPKLIIYEVSKRPSGVSNRFSGSKSGNTASLTISGLQAEDEADYYCSSYTGTTILEVFGTGTTVTVL
B9: 2G4 (antibody, V domains shown)
VH: QVQLVQSGAAVKKPGSSVKVSCTASGGTFGTSGITWVRQAPGQGLEWVGRITPILGITRYGQRFQGRVTITADKSTSTAYMELSRLRSDDTALYYCARAPEMTINSDWGQGTLVTVSS
VL: QSALTQPASVSGSPGQSITISCTGTRSDVGGHNYVSWYQHDPDKAPKLIIYEVSKRPSGISNRFSGSKSGNTASLTISGLQAEDEADYYCSSYTGSTILEVFGTGTTVTVL

Experiments:
MAGEA3 peptide No 5 = molecular target: T1, MAGEA3 peptide No 5; test: ELISA on plates coated with overlapping 20mer MAGEA3 peptides; antibody 9A5 at '4 mg/ml' as printed in paragraph 376; HRP goat anti-human IgG Fc-gamma
Method: (§1) 20mer peptides spanning the entire MAGEA3 protein with 10 aa overlaps shared by each adjacent peptide (Peptides&Elephants, Nuthetal, Germany) were used to coat Maxisorp ELISA plates (Nunc, Rochester, N.Y.). As control a 20mer peptide representing amino acids 40-21 from the NY-ESO-1 protein was used (rev). The numbering of amino acids of MAGEA3 is based on SEQ ID No.: 101.
(§2) Human recombinant antibody was used at a concentration of 1 μg/ml with the exception of antibody 9A5 which was used at […]. Bound human antibody was detected using horseradish peroxidase-conjugated goat anti-human IgG Fc-gamma specific antibodies (Jackson ImmunoResearch, Europe Ltd., Cambridgeshire, UK).

recombinant MAGEA1 = molecular target: T2, recombinant MAGEA1; test: ELISA on coated recombinant MAGEA proteins, serial dilutions of antibody (concentrations not printed on the sheet)
Method: (§3) Recombinantly expressed MAGEA3, MAGEA1, MAGEA4, MAGEA10 were coated on ELISA plates and binding of MAGEA3 antibodies 21B4, 94G11, 2G4, 9A5 and 54B4 to these proteins was tested. The results are depicted in FIG. 3B).

recombinant MAGEA10 = molecular target: T6, recombinant MAGEA10 (UniProt P43363 1-369, limits assumed); test: as above
T6 construct: also called CT1.10
T6 sequence (P43363 whole entry): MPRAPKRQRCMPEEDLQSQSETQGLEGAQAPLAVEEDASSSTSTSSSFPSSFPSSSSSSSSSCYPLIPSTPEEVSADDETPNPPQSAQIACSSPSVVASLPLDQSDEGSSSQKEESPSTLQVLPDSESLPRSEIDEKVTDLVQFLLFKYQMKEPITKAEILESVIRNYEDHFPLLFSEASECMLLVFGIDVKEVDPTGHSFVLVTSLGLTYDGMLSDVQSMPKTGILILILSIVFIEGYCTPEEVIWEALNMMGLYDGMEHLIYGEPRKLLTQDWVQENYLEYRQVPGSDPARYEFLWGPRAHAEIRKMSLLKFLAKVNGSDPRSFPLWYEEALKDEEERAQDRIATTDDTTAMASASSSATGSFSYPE
Method: as §3

[1] = molecular target: T7, recombinant MAGEA3 protein (human, UniProt P43357 1-314); test: ELISA, recombinant MAGEA3 coated to plastic, serial dilutions of antibody, OD 450 nm
T7 construct: In Experiment 4C MAGEA3 was also expressed in transiently transfected HEK293T cells (fixed and permeabilized); also called His-tagged MAGEA3; CT1.3
T7 sequence (P43357 whole entry): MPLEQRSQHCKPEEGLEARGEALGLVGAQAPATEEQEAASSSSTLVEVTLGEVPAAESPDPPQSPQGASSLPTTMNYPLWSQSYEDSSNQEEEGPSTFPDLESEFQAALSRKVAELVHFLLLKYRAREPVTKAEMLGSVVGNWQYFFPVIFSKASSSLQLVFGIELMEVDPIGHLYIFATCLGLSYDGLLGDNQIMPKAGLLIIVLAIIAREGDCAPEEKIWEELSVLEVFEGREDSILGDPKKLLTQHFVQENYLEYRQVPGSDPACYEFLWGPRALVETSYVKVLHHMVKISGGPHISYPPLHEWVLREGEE
Method: FIG. 4 EC50 determination of recombinant human monoclonal antibodies to MAGEA3. MAGEA3-ELISA was carried out using recombinant MAGEA3 coated to plastic and serial dilutions of the human monoclonal antibodies 21B4, 54B4, 94G11, 9A5, 31H10, 43B10, 2G4, 20C10, 26C9 and 4D6 (A-J). EC50 values are indicated in each figure.
(§4) The EC₅₀, the concentration at which half-maximal binding of the antibody to its antigen is observed was determined in MAGEA3 ELISA using serial dilutions of the human monoclonal antibodies 21B4, 54B4, 94G11, 9A5, 31H10, 43B10, 2G4, 20C10, 26C9 and 4D6. EC50 values were determined mathematically by derivation of the best-fit line using GraphPad software.

recombinant MAGEA4 = molecular target: T3, recombinant MAGEA4; test: Western blot; recombinant MAGEA4 in lane B, human antibody as probe
Method: Membranes were incubated with human antibodies 21B4, 54B4, 94G11, 9A5, 31H10, 43B10, 2G4 or 20C10. Binding of human antibodies to proteins on the membrane was evaluated. The results are depicted in FIG. 3A).

[2] = molecular target: T7, recombinant MAGEA3 protein; test: ELISA, recombinant MAGEA3 coated to plastic, serial dilutions of antibody, OD 450 nm; remark: listed apart in the source
Method: His-tagged MAGEA3 expressed in bacteria was column-purified and used to coat 96 well microplates (Costar, USA). Plates were washed with PBS-T and blocked 1 h at room temperature with PBS containing 2% BSA (Sigma, Buchs, Switzerland). Patient sera, B cell conditioned medium, or recombinant antibody preparations were incubated for 2 h at room temperature. Binding of human IgG to MAGEA3 was determined using a horseradish peroxidase conjugated goat anti human Fc-gamma-specific antibody (Jackson ImmunoResearch, Europe Ltd., Cambridgeshire, UK) followed by measurement of the HRP activity using a TMB substrate solution (TMB, Sigma, Buchs, Switzerland).
as §4

MAGEA3 peptide No 22 = molecular target: T4, MAGEA3 peptide No 22; test: ELISA on plates coated with overlapping 20mer MAGEA3 peptides; antibody at 1 µg/ml; HRP goat anti-human IgG Fc-gamma
Method: as §1, §2

MAGEA6 = molecular target: T8, MAGEA6 (UniProt P43360 1-314, limits assumed); test: flow cytometry on fixed, permeabilized HEK293T cells transiently transfected with MAGEA6; PE-labeled anti-human antibody
T8 construct: whole, on cells; Intracellular antigen: the transfected cells were fixed and permeabilized before staining; also called CT1.6
T8 sequence (P43360 whole entry): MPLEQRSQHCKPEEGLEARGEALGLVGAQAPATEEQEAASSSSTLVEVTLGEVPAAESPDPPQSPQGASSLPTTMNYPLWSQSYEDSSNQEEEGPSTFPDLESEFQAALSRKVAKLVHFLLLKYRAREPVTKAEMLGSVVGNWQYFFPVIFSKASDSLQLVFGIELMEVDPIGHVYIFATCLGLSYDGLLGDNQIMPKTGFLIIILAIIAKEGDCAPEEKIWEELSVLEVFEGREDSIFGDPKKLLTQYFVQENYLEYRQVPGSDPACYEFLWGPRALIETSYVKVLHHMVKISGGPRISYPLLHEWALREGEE
Method: HEK293T cells transiently transfected with MAGEA3 or MAGE A6 were fixed and permeabilized and incubated with human-derived antibodies. Binding of human-derived antibodies to the cells was detected by flow cytometry using PE-labeled anti-human antibodies. […] Filled histograms show binding of 21B4, 31H10, 94G11 and 54B4 to transiently transfected HEK 293 cells. Only a proportion of the cells was transfected resulting in a population expressing the transgene and in a population not expressing the transgene. […] The results are depicted in FIG. 3C).

MAGEA3 peptide No 10 = molecular target: T5, MAGEA3 peptide No 10; test: ELISA on plates coated with overlapping 20mer MAGEA3 peptides; antibody at 1 µg/ml; HRP goat anti-human IgG Fc-gamma
Method: as §1, §2

Row | Binder | binding result (recombinant MAGEA1) | binding result (recombinant MAGEA10) | EC50 [1] [nM] | binding result (recombinant MAGEA4) | EC50 [2] [nM] | binding result (MAGEA6) | also measured
1 | B1 | no binding | no binding | 0.259 | no binding | – | – | binding result (MAGEA3 peptide No 5): binds
2 | B2 | – | – | – | no binding | 0.029 | binds | binding result (MAGEA3 peptide No 22): binds
3 | B3 | – | – | – | – | 0.109 | – | binding result (MAGEA3 peptide No 22): binds
4 | B4 | – | – | – | – | – | – | binding result [2]: binds
5 | B5 | – | – | 0.0192 | no binding | – | binds | binding result (MAGEA3 peptide No 10): binds
6 | B6 | – | – | 37.3 | – | – | – | –
7 | B7 | no binding | no binding | – | no binding | 0.129 | binds | –
8 | B8 | – | – | 0.523 | – | – | – | –
9 | B9 | no binding | no binding | 7.79 | no binding | – | – | –
